2 proteins from paper PMC10785194 can be followed below.

What all share (conditions): control: untreated
Data set [1] is described as follows: CHX chase, AR protein stability by immunoblot. For orientation: In western blotting, separated proteins are transferred to a membrane and probed.
The nature of data set [2]: immunofluorescence, nuclear AR, C4-2B.
A short description of the next data set: immunoblot, C4-2B.

B1: androgen receptor (AR): OSMI-1 (protein)
parent chain: MEVQLGLGRVYPRPPSKTYRGAFQNLFQSVREVIQNPGPRHPEAASAAPPGASLLLLQQQQQQQQQQQQQQQQQQQQQQQETSPRQQQQQQGEDGSPQAHRRGPTGYLVLDEEQQPSQPQSALECHPERGCVPEPGAAVAASKGLPQQLPAPPDEDDSAAPSTLSLLGPTFPGLSSCSADLKDILSEASTMQLLQQQQQEAVSEGSSSGRAREASGAPTSSKDNYLGGTSTISDNAKELCKAVSVSMGLGVEALEHLSPGEQLRGDCMYAPLLGVPPAVRPTPCAPLAECKGSLLDDSAGKSTEDTAEYSPFKGGYTKGLEGESLGCSGSAAAGSSGTLELPSTLSLYKSGALDEAAAYQSRDYYNFPLALAGPPPPPPPPHPHARIKLENPLDYGSAWAAAAAQCRYGDLASLHGAGAAGPGSGSPSAAASSSWHTLFTAEEGQLYGPCGGGGGGGGGGGGGGGGGGGGGGGEAGAVAPYGYTRPPQGLAGQESDFTAPDVWYPGGMVSRVPYPSPTCVKSEMGPWMDSYSGPYGDMRLETARDHVLPIDYYFPPQKTCLICGDEASGCHYGALTCGSCKVFFKRAAEGKQKYLCASRNDCTIDKFRRKNCPSCRLRKCYEAGMTLGARKLKKLGNLKLQEEGEASSTTSPTEETTQKLTVSHIEGYECQPIFLNVLEAIEPGVVCAGHDNNQPDSFAALLSSLNELGERQLVHVVKWAKALPGFRNLHVDDQMAVIQYSWMGLMVFAMGWRSFTNVNSRMLYFAPDLVFNEYRMHKSRMYSQCVRMRHLSQEFGWLQITPQEFLCMKALLLFSIIPVDGLKNQKFFDELRMNYIKELDRIIACKRKNPTSCSRRFYQLTKLLDSVQPIARELHQFTFDLLIKSHMVSVDFPEMMAEIISVQVPKILSGKVKPIYFHTQ
Regarding B1, the degradation_or_half_life entry in data set [1] (glycan lost) was “increases”. For the same protein, the localisation_or_trafficking entry in data set [2] (glycan lost) is “increases”. Besides, the “other: AR S81 phosphorylation” value in the data set “immunoblot, C4-2B” (glycan lost) was “increases”.

B2: androgen receptor (AR): Thiamet G (protein)
parent chain: B1 parent chain
Consider B2, for which the degradation_or_half_life result in data set [1] (glycan gained) was “decreases”. Besides, in data set [2] (glycan gained), the localisation_or_trafficking result was “decreases”. In the data set “immunoblot, C4-2B” (glycan gained), the “other: AR S81 phosphorylation” value is given as “decreases”.
